Data set [1] concerns the target T1, PunR (YdhB), LysR-family regulator (Escherichia coli K-12 (ASKA collection …, UniProt P0ACR2 1-310)).
T1 sequence: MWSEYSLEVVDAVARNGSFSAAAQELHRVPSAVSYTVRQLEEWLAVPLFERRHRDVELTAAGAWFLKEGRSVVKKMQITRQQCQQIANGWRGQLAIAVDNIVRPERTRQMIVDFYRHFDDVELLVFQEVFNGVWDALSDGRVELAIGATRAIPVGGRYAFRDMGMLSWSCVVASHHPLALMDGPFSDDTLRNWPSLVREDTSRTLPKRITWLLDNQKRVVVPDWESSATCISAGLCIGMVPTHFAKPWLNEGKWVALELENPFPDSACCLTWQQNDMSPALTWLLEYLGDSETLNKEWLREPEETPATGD
In words: EMSA; 1 mM adenine; PunR up to 1.5 uM; 10 mM MgSO4; FP: 20 mM Tris-HCl pH 7.5, 0.1 M NaCl, 0.5 mM EDTA, 10 mM MgSO4, 2 mM DTT, 5 ug/ml herring sperm DNA, 10 nM DNA, 30 C 1 h; EMSA: PBS pH 8, 10 mM MgSO4, 2 mM DTT, 0.25 mM adenine (Methods; 1 or 10 mM in Results and Fig. S3), 100 nM DNA, 30 C 1 h then 25 C 1 h, 6% native PAGE Tris-glycine with 0.25 mM adenine. The following applies: protein: recombinant; tags: N-terminal His6; chain copies: 4; label: 5' 6-carboxyfluorescein on printed strand; blunt. Background: In EMSA bound probe runs differently from free probe, usually more slowly.

The target in data set [2] is T1, PunR (YdhB), LysR-family regulator. Description: fluorescence polarization; 0.35 mM adenine; 10 mM MgSO4; FP: 20 mM Tris-HCl pH 7.5, 0.1 M NaCl, 0.5 mM EDTA, 10 mM MgSO4, 2 mM DTT, 5 ug/ml herring sperm DNA, 10 nM DNA, 30 C 1 h; EMSA: PBS pH 8, 10 mM MgSO4, 2 mM DTT, 0.25 mM adenine (Methods; 1 or 10 mM in Results and Fig. S3), 100 nM DNA, 30 C 1 h then 25 C 1 h, 6% native PAGE Tris-glycine with 0.25 mM adenine. The conditions noted are these: protein: recombinant; tags: N-terminal His6; chain copies: 4; label: 5' 6-carboxyfluorescein on printed strand; blunt. For orientation: In fluorescence polarisation assays a small probe gives low polarisation when free and higher when bound to something large.

B1: GguR binding site 26 bp (negative control) (dsDNA)
DNA 1: ACCCCCAGTCATCAGACAACCTCCCC
DNA 2: GGGGAGGTTGTCTGATGACTGGGGGT
For the molecule B1, the binding result in data set [1] is reported as “no binding”.

B2: PunR-binding site 36 bp upstream of punC (dsDNA)
DNA 1: TGGGGACTGGTTTCAAAAATTTTGCAGGCAGAGGGG
DNA 2: CCCCTCTGCCTGCAAAATTTTTGAAACCAGTCCCCA
What is called Kd is the constant that tells how readily two partners part at equilibrium. Regarding B2, the Kd in data set [2] turned out to be 27 nM.

Source of the values: PMC8376909, “Identification of a transcription factor, PunR, that regulates the purine and purine nucleoside transporter punC in E. coli”.
